Experimental data published in patent publication US20150086555A1.

Tests used:
Conditions in all cases: remark: other sources report otherwise
[1] = target: recombinant homotrimeric HA A/Netherlands/219/03 H7N7 (Influenza A virus A/Netherlands/219/03(H7N7)); assay: protein microarray, purified IgG, trimeric HA
[2] = target: recombinant homotrimeric HA A/South Carolina/1/18 H1N1 (Influenza A virus A/South Carolina/1/18 (H1N1)); assay: protein microarray, purified IgG, trimeric HA
[3] = target: recombinant homotrimeric HA A/Wisconsin/67/05 H3N2 (Influenza A virus A/Wisconsin/67/2005(H3N2)); assay: protein microarray, purified IgG, trimeric HA
[4] = target: recombinant homotrimeric HA A/Japan/305/57 H2N2 (Influenza A virus A/Japan/305/1957(H2N2)); assay: protein microarray, purified IgG, trimeric HA
[5] = target: recombinant homotrimeric HA A/Hong Kong/156/97 H5N1 (Influenza A virus A/Hong Kong/156/97 (H5N1)); assay: protein microarray, purified IgG, trimeric HA
[6] = target: recombinant homotrimeric HA A/California/4/09 H1N1 (Influenza A virus A/California/04/2009(H1N1)); assay: protein microarray, purified IgG, trimeric HA
[7] = target: recombinant homotrimeric HA A/Hong Kong/2108/03 H9N2 (Influenza A virus A/HK/2108/2003(H9N2)); assay: protein microarray, purified IgG, trimeric HA
[8] = target: recombinant homotrimeric HA A/Egypt/3300-NAMRU3/08 H5N1 (Influenza A virus A/Egypt/3300-NAMRU3/2008(H5N1)); assay: protein microarray, purified IgG, trimeric HA
[9] = target: recombinant homotrimeric HA A/Vietnam/1203/04 H5N1 (Influenza A virus A/VietNam/1203/2004(H5N1)); assay: protein microarray, purified IgG, trimeric HA
[10] = target: recombinant soluble homotrimeric HA of A/South Carolina/1/18 (H1N1) (Influenza A virus A/South Carolina/1/18 (H1N1)); assay: trimeric HA microarray, transfection supernatant set 5
[11] = target: T1, recombinant soluble homotrimeric HA of A/Netherlands/219/03 (H7N7) (Influenza A virus A/Netherlands/219/03(H7N7)); assay: as above
[12] = target: T2, recombinant soluble homotrimeric HA of A/California/4/09 (H1N1) (Influenza A virus A/California/04/2009(H1N1)); assay: as above
[13] = target: T3, recombinant soluble homotrimeric HA of A/chicken/Vietnam/NCVD-016/08 (H5N1) (Influenza A virus A/chicken/Vietnam/NCVD-016/2008(H5N1)); assay: as above
[14] = target: T4, recombinant soluble homotrimeric HA of A/swine/Ontario/01911-2/99 (H4N6) (Influenza A virus A/Swine/Ontario/01911-2/99 (H4N6)); assay: as above
[15] = target: T5, recombinant soluble homotrimeric HA of A/Vietnam/1203/04 (H5N1) (Influenza A virus A/VietNam/1203/2004(H5N1)); assay: as above
[16] = target: T6, recombinant soluble homotrimeric HA of A/duck/Yangzhou/02/05 (H8N4) (Influenza A virus A/duck/Yangzhou/02/2005(H8N4)); assay: as above
[17] = target: T7, recombinant soluble homotrimeric HA of A/Egypt/3300-NAMRU3/08 (H5N1) (Influenza A virus A/Egypt/3300-NAMRU3/2008(H5N1)); assay: as above
[18] = target: T8, recombinant soluble homotrimeric HA of A/Japan/305/57 (H2N2) (Influenza A virus A/Japan/305/1957(H2N2)); assay: as above
[19] = target: T9, recombinant soluble homotrimeric HA of A/Wisconsin/67/05 (H3N2) (Influenza A virus A/Wisconsin/67/2005(H3N2)); assay: as above
[20] = target: recombinant soluble homotrimeric HA of A/Hong Kong/156/97 (H5N1) (Influenza A virus A/Hong Kong/156/97 (H5N1)); assay: as above
[21] = target: T10, recombinant soluble homotrimeric HA of A/Indonesia/5/05 (H5N1) (Influenza A virus A/Indonesia/5/2005(H5N1)); assay: as above
[22] = target: T1, recombinant soluble homotrimeric HA of …; assay: HA microarray, BCC supernatant
[23] = target: recombinant soluble homotrimeric HA of A/northern shoveler/California/HKWF115/07 (H6) (Influenza A virus A/northern shoveler/California/HKWF115/2007(H6N1)); assay: HA microarray, BCC supernatant
[24] = target: recombinant soluble homotrimeric HA of A/Hong Kong/2108/03 (H9N2) (Influenza A virus A/HK/2108/2003(H9N2)); assay: HA microarray, BCC supernatant
[25] = target: T2, recombinant soluble homotrimeric HA of …; assay: HA microarray, BCC supernatant
[26] = target: T3, recombinant soluble homotrimeric HA of …; assay: HA microarray, BCC supernatant
[27] = target: T4, recombinant soluble homotrimeric HA of …; assay: HA microarray, BCC supernatant
[28] = target: T5, recombinant soluble homotrimeric HA of …; assay: HA microarray, BCC supernatant
[29] = target: T6, recombinant soluble homotrimeric HA of …; assay: HA microarray, BCC supernatant
[30] = target: T7, recombinant soluble homotrimeric HA of …; assay: HA microarray, BCC supernatant
[31] = target: T8, recombinant soluble homotrimeric HA of …; assay: HA microarray, BCC supernatant
[32] = target: recombinant soluble homotrimeric HA of A/Anhui/1/05 (H5N1) (Influenza A virus A/Anhui/1/2005(H5N1)); assay: HA microarray, BCC supernatant
[33] = target: T9, recombinant soluble homotrimeric HA of …; assay: HA microarray, BCC supernatant
[34] = target: T10, recombinant soluble homotrimeric HA of …; assay: HA microarray, BCC supernatant
[35] = target: recombinant homotrimeric HA A/duck/Yangzhou/02/05 H8N4 (Influenza A virus A/duck/Yangzhou/02/2005(H8N4)); assay: protein microarray, purified IgG, trimeric HA
[36] = target: recombinant homotrimeric HA A/chicken/Vietnam/NCVD-016/08 H5N1 (Influenza A virus A/chicken/Vietnam/NCVD-016/2008(H5N1)); assay: protein microarray, purified IgG, trimeric HA
[37] = target: recombinant homotrimeric HA A/Indonesia/5/05 H5N1 (Influenza A virus A/Indonesia/5/2005(H5N1)); assay: protein microarray, purified IgG, trimeric HA

Row | Binder | Trimeric HA Binding: RLU [1] [RLU] | Trimeric HA Binding: RLU [2] [RLU] | Trimeric HA Binding: RLU [3] [RLU] | Trimeric HA Binding: RLU [4] [RLU] | Trimeric HA Binding: RLU [6] [RLU] | Trimeric HA Binding: RLU [7] [RLU] | Trimeric HA Binding: RLU [8] [RLU] | Trimeric HA Binding: RLU [10] [RLU] | Trimeric HA Binding: RLU [13] [RLU] | Trimeric HA Binding: RLU [14] [RLU] | Trimeric HA Binding: RLU [15] [RLU] | Trimeric HA Binding: RLU [16] [RLU] | Trimeric HA Binding: RLU [18] [RLU] | Trimeric HA Binding: RLU [19] [RLU] | Trimeric HA Binding: RLU [22] [RLU] | Trimeric HA Binding: RLU [26] [RLU] | Trimeric HA Binding: RLU [28] [RLU] | Trimeric HA Binding: RLU [31] [RLU] | Trimeric HA Binding: RLU [33] [RLU] | other results
1 | TCN-537 (3194_D21) (antibody, V domains shown) VH: QVQLQQWGSGLLKPSETLSLTCAVYGGSFRDDYWTWIRQPPGKGLEWIGEINHSGRTNYNPSLKSRVTISVDTSLKQFSLKVISVTAADTAVYYCARGTSHVSRYFDWLPPTNWFDPWGQGTQVTVSS VL: DIVLTQSPGTLSLSPGERATLSCRASQSVSSSYLAWYQQKPGQAPRLVMYGAATRATGIPDRFSGSGSGPDFTLTISRLEPEDFAMYYCQQYGNSPITFGQGTRLEIK | 729 | 2840 | 154 | 19500 | 10200 | 171 | 3190 | 46800 | 4480 | 3280 | 50300 | 25500 | 16200 | 1940 | 1050 | 8620 | 80 | 44700 | 549 | Trimeric HA Binding: RLU [5]: 862 RLU; Trimeric HA Binding: RLU [9]: 5690 RLU; Trimeric HA Binding: RLU [11]: 3650 RLU; Trimeric HA Binding: RLU [12]: 33800 RLU; Trimeric HA Binding: RLU [17]: 33500 RLU; Trimeric HA Binding: RLU [20]: 10700 RLU; Trimeric HA Binding: RLU [21]: 2420 RLU; Trimeric HA Binding: RLU [23]: 5210 RLU; Trimeric HA Binding: RLU [24]: 147 RLU; Trimeric HA Binding: RLU [25]: 21900 RLU; Trimeric HA Binding: RLU [27]: 19 RLU; Trimeric HA Binding: RLU [29]: 7830 RLU; Trimeric HA Binding: RLU [30]: 38200 RLU; Trimeric HA Binding: RLU [32]: 335 RLU; Trimeric HA Binding: RLU [34]: 14900 RLU
2 | TCN-545 (5082_I15) (antibody, V domains shown) VH: QVQLQQWGAGLLKPSETLSLSCAVFGGSFSDYYWTWIRQPPGKGLEWIGEIKHSGRTNYNPSLESRVTISVDTSKNQFSLKLSSVTAADTAIYYCARGTDPDTEGYCRSGSCSAFDFWGQGTLVTVSS VL: EIVLTQSPGTLSLSPGERATLSCRASHFVNYRSLAWYQQTPGQVPRLLIYGASTRATGIPDRFSGSGSGTDFTLTISRLEPEDFAVYFCQQYGGSPRYTFGQGTRLEIK | 1490 | 289 | 23700 | 1400 | 672 | 262 | 1410 | 900 | 3230 | 2940 | 42900 | 13200 | 1360 | 32000 | 1180 | 392 | 235 | 157 | 575 | Trimeric HA Binding: RLU [35]: 396 RLU; Trimeric HA Binding: RLU [36]: 679 RLU; Trimeric HA Binding: RLU [37]: 193 RLU
